According to the supplement of paper PMC10567573:

B1: POMT2 (parent)
chain: VLRSRIRFIHLVTGCVLGSSGKVL
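Also: lentivirally expressed fusions sorted by FACS into six bins by GFP to DsRed ratio, PSI derived from sequencing read proportions per bin multiplied by bin number.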

Variants of: B1
Assay: protein stability index of a GFP-peptide fusion (GPS, HEK-293T) (PSI 1-6); higher = more stable
Details: c terminus: a fixed tail appended
For VLRSRIRFIHLVTGCVLGSSGKDL [V23D], the protein stability index was 3.41. VLRSRIRFIHLVTGCVLGSSGKYL [V23Y] showed a protein stability index of 2.47. VLRSRIRFIHLVTGCVLGSSGKEL [V23E] gave a protein stability index of 3.48. Work on VLRSRIRFIHLVTGCVLGSSGKGL [V23G] yielded a protein stability index of 3.42. Variant VLRSRIRFIHLVTGCVLGSSGKFL [V23F] has a protein stability index of 1.77. With VLRSRIRFIHLVTGCVLGSSGKML [V23M] the protein stability index was 2.32. In the case of VLRSRIRFIHLVTGCVLGSSGKKL [V23K], the protein stability index is reported as 2.21. For VLRSRIRFIHLVTGCVLGSSGKRL [V23R], the protein stability index was 1.46. For VLRSRIRFIHLVTGCVLGSSGKPL [V23P], the protein stability index was 3.61. VLRSRIRFIHLVTGCVLGSSGKCL [V23C] showed a protein stability index of 2.37. In the case of VLRSRIRFIHLVTGCVLGSSGKQL [V23Q], the protein stability index is reported as 3.61. VLRSRIRFIHLVTGCVLASSGKVL [G18A] showed a protein stability index of 2.35. Work on VLRSRIRFIHLVTGCVLLSSGKVL [G18L] yielded a protein stability index of 2.69. Work on VLRSRIRFIHLVTGCVLDSSGKVL [G18D] yielded a protein stability index of 1.67. For VLRSRIRFIHLVTGCVLRSSGKVL [G18R], the protein stability index was 2.35. For VLRSRIRFIHLVTGCVLTSSGKVL [G18T], the protein stability index was 2.14. VLRSRIRFIHLVTGCVLVSSGKVL [G18V] gave a protein stability index of 1.38. Variant VLRSRIRFIHLVTGCVLMSSGKVL [G18M] has a protein stability index of 2.78. For VLRSRIRFIHLVTGCVLISSGKVL [G18I], the protein stability index was 2.37. For VLRSRIRFIHLVTGCVLSSSGKVL [G18S], the protein stability index was 3.06. Work on VLRSRIRFIHLVTGCVLCSSGKVL [G18C] yielded a protein stability index of 2.32. VLRSRIRFIHLVTGCVLNSSGKVL [G18N] gave a protein stability index of 4.13. VLRSRIRFIHLVTGCVLESSGKVL [G18E] gave a protein stability index of 2.45. In the case of VLRSRIRFIHLVTGCVLKSSGKVL [G18K], the protein stability index is reported as 2. In the case of VLRSRIRFIHLVTGCVLGSSLKVL [G21L], the protein stability index is reported as 3.1. Variant VLRSRIRFIHLVTGCVLGSSIKVL [G21I] has a protein stability index of 1.98. Work on VLRSRIRFIHLVTGCVLGSSVKVL [G21V] yielded a protein stability index of 2.17. For VLRSRIRFIHLVTGCVLGSSWKVL [G21W], the protein stability index was 2.96. VLRSRIRFIHLVTGCVLGSSTKVL [G21T] showed a protein stability index of 2. In the case of VLRSRIRFIHLVTGCVLGSSHKVL [G21H], the protein stability index is reported as 3.14. VLRSRIRFIHLVTGCVLGSSEKVL [G21E] gave a protein stability index of 3.64. With VLRSRIRFIHLVTGCVLGSSNKVL [G21N] the protein stability index was 2.47. Work on VLRSRIRFIHLVTGCVLGSSDKVL [G21D] yielded a protein stability index of 3.45. VLRSRIRFIHLVTGCVLGSSFKVL [G21F] showed a protein stability index of 2.53. Variant VLRSRIRFIHLVTGCVLGSSCKVL [G21C] has a protein stability index of 3.88. VLRSRIRFIHLVTGCVLGSSSKVL [G21S] showed a protein stability index of 3.83. Work on VLRSRIRFIHLVTGCVLGSSPKVL [G21P] yielded a protein stability index of 2.65. With VLRSRIRFIHLVTGCVLGSSAKVL [G21A] the protein stability index was 2.99. VLRSRIRFIHLVTGCVLGSSQKVL [G21Q] showed a protein stability index of 3.44. For VLRSRIRFIHLVTGCVLGSSRKVL [G21R], the protein stability index was 2.47. Work on VLRSRIRFIHLVTGCVLGSSMKVL [G21M] yielded a protein stability index of 3.38. VLRSRIRFIHLVTGCVLGSSGHVL [K22H] showed a protein stability index of 2.37. With VLRSRIRFIHLVTGCVLGSSGDVL [K22D] the protein stability index was 3.31. In the case of VLRSRIRFIHLVTGCVLGSSGSVL [K22S], the protein stability index is reported as 2.57. VLRSRIRFIHLVTGCVLGSSGAVL [K22A] gave a protein stability index of 2.25. VLRSRIRFIHLVTGCVLGSSGFVL [K22F] gave a protein stability index of 2.53. For VLRSRIRFIHLVTGCVLGSSGYVL [K22Y], the protein stability index was 2.74. For VLRSRIRFIHLVTGCVLGSSGLVL [K22L], the protein stability index was 2.69. VLRSRIRFIHLVTGCVLGSSGWVL [K22W] showed a protein stability index of 3.35. For VLRSRIRFIHLVTGCVLGSSGVVL [K22V], the protein stability index was 3.02. For VLRSRIRFIHLVTGCVLGSSGPVL [K22P], the protein stability index was 1.99. Variant VLRSRIRFIHLVTGCVLGSSGCVL [K22C] has a protein stability index of 2.73. Work on VLRSRIRFIHLVTGCILGSSGKVL [V16I] yielded a protein stability index of 1.6. With VLRSRIRFIHLVTGCDLGSSGKVL [V16D] the protein stability index was 2.73. VLRSRIRFIHLVTGCMLGSSGKVL [V16M] gave a protein stability index of 3.73. With VLRSRIRFIHLVTGCRLGSSGKVL [V16R] the protein stability index was 4.75. Variant VLRSRIRFIHLVTGCKLGSSGKVL [V16K] has a protein stability index of 3.78. Variant VLRSRIRFIHLVTGCGLGSSGKVL [V16G] has a protein stability index of 2.39. With VLRSRIRFIHLVTGCNLGSSGKVL [V16N] the protein stability index was 3.21. In the case of VLRSRIRFIHLVTGCELGSSGKVL [V16E], the protein stability index is reported as 2.4. Variant VLRSRIRFIHLVTGCQLGSSGKVL [V16Q] has a protein stability index of 2.89. In the case of VLRSRIRFIHLVTGCHLGSSGKVL [V16H], the protein stability index is reported as 3.17. VLRSRIRFIHLVTGCYLGSSGKVL [V16Y] gave a protein stability index of 3.11. In the case of VLRSRIRFIHLVTGCWLGSSGKVL [V16W], the protein stability index is reported as 2.43. In the case of VLRSRIRFIHLVTGCFLGSSGKVL [V16F], the protein stability index is reported as 1.63. With VLRSRIRFIHLVTGCPLGSSGKVL [V16P] the protein stability index was 4.02. Variant VLRSRIRFIHLVTGCLLGSSGKVL [V16L] has a protein stability index of 3.58. Variant VLRSRIRFIHLVTGCVPGSSGKVL [L17P] has a protein stability index of 1.74. VLRSRIRFIHLVTGCVQGSSGKVL [L17Q] showed a protein stability index of 1.08. VLRSRIRFIHLVTGCVWGSSGKVL [L17W] showed a protein stability index of 3.74. With VLRSRIRFIHLVTGCVHGSSGKVL [L17H] the protein stability index was 2.75. VLRSRIRFIHLVTGCVYGSSGKVL [L17Y] showed a protein stability index of 4.34. Work on VLRSRIRFIHLVTGCVRGSSGKVL [L17R] yielded a protein stability index of 2.35. Variant VLRSRIRFIHLVTGCVVGSSGKVL [L17V] has a protein stability index of 2.1. With VLRSRIRFIHLVTGCVIGSSGKVL [L17I] the protein stability index was 2.28. Work on VLRSRIRFIHLVTGCVAGSSGKVL [L17A] yielded a protein stability index of 2.77. Work on VLRSRIRFIHLVTGCVGGSSGKVL [L17G] yielded a protein stability index of 3.47. With VLRSRIRFIHLVTGCVFGSSGKVL [L17F] the protein stability index was 1.62. VLRSRIRFIHLVTGCVSGSSGKVL [L17S] showed a protein stability index of 2.9. With VLRSRIRFIHLVTGCVMGSSGKVL [L17M] the protein stability index was 2.42. VLRSRIRFIHLVTGCVDGSSGKVL [L17D] gave a protein stability index of 3.16. With VLRSRIRFIHLVTGCVLGSSGKVR [L24R] the protein stability index was 2.92. Work on VLRSRIRFIHLVTGCVLGSSGKVI [L24I] yielded a protein stability index of 4.08. For VLRSRIRFIHLVTGCVLGSSGKVN [L24N], the protein stability index was 1.89. VLRSRIRFIHLVTGCVLGSSGKVG [L24G] showed a protein stability index of 3.89. VLRSRIRFIHLVTGCVLGSSGKVY [L24Y] showed a protein stability index of 2.18. VLRSRIRFIHLVTGCVLGSSGKVW [L24W] gave a protein stability index of 4.21. With VLRSRIRFIHLVTGCVLGSSGKVD [L24D] the protein stability index was 2.33. VLRSRIRFIHLVTGCVLGSSGKVS [L24S] showed a protein stability index of 2.75. Work on VLRSRIRFIHLVTGCVLGSSGKVE [L24E] yielded a protein stability index of 3.25. In the case of VLRSRIRFIHLVTGCVLGSSGKVM [L24M], the protein stability index is reported as 2.42. In the case of VLRSRIRFIHLVTGCVLGSSGKVH [L24H], the protein stability index is reported as 3.1. In the case of VLRSRIRFIHLVTGCVLGSYGKVL [S20Y], the protein stability index is reported as 2.86. VLRSRIRFIHLVTGCVLGSAGKVL [S20A] gave a protein stability index of 3.46.
